Columns and labels:
[1] = target: Chloroflexus aurantiacus succinate dehydrogenase (CaSDH) monomer of SdhA, SdhB and SdhC (Chloroflexus aurantiacus J-10-fl (endogenous)); assay: native gel or EMSA
[2] = target: Chloroflexus aurantiacus succinate dehydrogenase (CaSDH) monomer of SdhA, SdhB and SdhC (Chloroflexus aurantiacus J-10-fl (endogenous)); assay: cryo-EM structure

stoichiometry N [1]: 3
stoichiometry N [2]: 3
Substance: Chloroflexus aurantiacus succinate dehydrogenase (CaSDH) monomer of SdhA, SdhB and SdhC (complex)
